The values that follow come from paper PMC5589570, “The antigenic identity of human class I MHC phosphopeptides is critically dependent upon phosphorylation status” (Oncotarget, 2017).

Square brackets hold non-standard residues; d marks the D form. Ends that are not written are not given here. pS = N[C@@H](COP(=O)(O)O)C(=O)O

In assay [1] the target is HLA-A2 (heavy chain with β2-microglobulin) (human | , Heavy-chain limits are not given; taken from the longest deposited entity of this paper (mature 1-276, A*02:01). Bound peptide not included: the test peptide is the partner, and the affinity-assay c). As to the kind of experiment: radioligand binding; competitive peptide binding assay: test peptide (100,000-fold concentration range, triplicate) displaces a radiolabeled peptide from HLA-A2 (refolded with […]); MHC-peptide complexes captured on plates coated with antibody W6/32; IC50 taken as a reasonable approximation of the dissociation constant. The following applies: both partners purified.

Assay [2] has as its target HLA-A2 (heavy chain with β2-microglobulin) (human | ). Described as above. The conditions noted are these: both partners purified.

B1: RQA_Vnp, unmodified peptide RQASIELPSMAV derived from Lymphocyte Specific Protein 1 (LSP-1) (peptide)
peptide: RQASIELPSMAV
notes: stretch of Lymphocyte Specific Protein 1 (LSP-1); source: synthetic peptide
Take B1: in assay [1], binding was characterised by a dissociation constant (Kd) of 26 nM.

B2: RQInp, unmodified peptide RQISQDVKL derived from adenosine monophosphate deaminase 2 (AMPD2) (peptide)
peptide: RQISQDVKL
notes: stretch of adenosine monophosphate deaminase 2 (AMPD2); also called non-phosphorylated RQI; source: synthetic peptide
In assay [1], B2 came in with a Kd of 1920 nM.

B3: RQIp, phosphopeptide RQIpSQDVKL derived from adenosine monophosphate deaminase 2 (AMPD2) (peptide)
peptide: RQI[pS]QDVKL
notes: stretch of adenosine monophosphate deaminase 2 (AMPD2); source: synthetic peptide
On to B3, for which the Kd in assay [2] was 25.5 nM.
